The record followed here is article PMC10113246, “Disease-related p63 DBD mutations impair DNA binding by distinct mechanisms and varying degree”.

The target of the series is T1, ΔNp63α R227Q (UniProt Q9H3D4-2 1-586, R172Q).
T1 sequence: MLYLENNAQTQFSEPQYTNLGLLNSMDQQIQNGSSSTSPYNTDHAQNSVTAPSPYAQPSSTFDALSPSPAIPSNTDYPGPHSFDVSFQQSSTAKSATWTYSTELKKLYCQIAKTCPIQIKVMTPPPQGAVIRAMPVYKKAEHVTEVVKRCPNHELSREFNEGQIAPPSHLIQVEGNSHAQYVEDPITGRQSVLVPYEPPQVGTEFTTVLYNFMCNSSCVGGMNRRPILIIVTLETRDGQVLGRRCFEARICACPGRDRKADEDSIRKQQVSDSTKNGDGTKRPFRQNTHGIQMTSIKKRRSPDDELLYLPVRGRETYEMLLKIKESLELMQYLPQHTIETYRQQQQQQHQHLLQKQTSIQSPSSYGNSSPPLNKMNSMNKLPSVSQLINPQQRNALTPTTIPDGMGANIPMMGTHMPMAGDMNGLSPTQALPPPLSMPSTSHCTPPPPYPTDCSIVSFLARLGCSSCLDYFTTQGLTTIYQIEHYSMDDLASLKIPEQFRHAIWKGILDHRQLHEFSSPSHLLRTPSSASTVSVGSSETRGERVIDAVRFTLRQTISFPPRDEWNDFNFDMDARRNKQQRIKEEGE
As to the kind of experiment: pull-down; not significantly different from WT; SPR DBD-TD: 25 mM HEPES pH 7.5, 200 mM NaCl, 0.5 mM TCEP, 0.005% Tween-20; SPR DBD: 10 mM HEPES pH 7.5, 150 mM NaCl, 0.2 mM TCEP, 0.005% Tween-20; random-sequence dsDNA (S12/S13) as reference cell; pull-down: 50 mM Tris pH 8.0, 150 mM NaCl, 0.1% Tween-20, 4 °C. The settings on record: protein: ivt, tags: Myc, chain copies: 4, blunt.

B1: p21 RE (pulldown) (dsDNA)
DNA 1: GCCAGGAACATGTCCCAACATGTTGAGCCG
DNA 2: CGGCTCAACATGTTGGGACATGTTCCTGGC
As to B1, under “label: 5' biotin on S8”, the binding result is listed as “binds”.

B2: KRT14 RE (pulldown) (dsDNA)
DNA 1: AAAATATGACAGACATGATGAGGCGGATGA
DNA 2: TCATCCGCCTCATCATGTCTGTCATATTTT
Regarding B2, for the setting “label: 5' biotin on S10”, the binding result is listed as “binds”.
